Experiment: yeast display, Sf9 membrane polyspecificity reagent, FACS + sequencing; frameworks hold sequencing errors
Procedure, shortened: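 Nanobodies from a synthetic yeast display library (Saccharomyces cerevisiae BJ5465), induced 36–48 hours with galactose, were stained 1 hour at 4 °C with 10% biotinylated, detergent-solubilized Sf9 membrane reagent, enriched on streptavidin microbeads, then FACS-sorted. Anti-HA (expression) and streptavidin (reagent binding) fluorescence set low and high (top ~1%) gates. Polyreactivity labels come from the gate of origin. Genes were colony-PCR amplified, MiSeq 2 × 250 sequenced and filtered by CDR length.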

Sequence	polyreactivity (PSR sort gate)
QVQLVESGGGLVQAGGSLRLSCAASGLTFAYYAMGWYRQAPGKERELVAAISYSGGSTYYADSVKGRFTISRDNANKTVYLQMNSLKPEDTAVYYCNRDRNSGFYRRYGYWGQGTQVTVSS	high polyreactivity
QVQLVESGGGLVQAGGSLRLSCAASGGTFEFYTMGGYRQAPGKERELVAVINASGDSTYYADSVKGRFTISRDNAKNTVYLQMNSLKPEYTAVYYCAADHRGEYDYWGQGTQVNVSS	low polyreactivity
QVQLGESGGGLVQAGGSLRLSCVASGFIFRGNAMGWYRQAPGKERELVATISSGGNTYYADSVKGRFTISRDNAKNTVYLQINSLKPEDTAVYYCNASDGLPTKLNVYVEFDYWGQGTQVTVSS	low polyreactivity
QVQLVESGGGLVQAGASLRLSCAASGRTFVGYAMGWYRQAPGKERELVAAISKSSGSTYYADSVKVRFTISRDNAKNTVYLQMNSLKPEDTAVYYCNAARRQCNRYTYDYWGQGTLVTVSS	high polyreactivity
QVQLVESGGGLVQAGGSLRLSCAASGSTFHKYVMGWYRQAPGKEREFVAAISRRGTRTYYADSVKGRFTISRDNAKNTVYLQMNSLKPEDTAVYYCNVYYYRTYTHFLPGYEYWGQGTQVTVSS	high polyreactivity
QVQLVESGGGLVQSGGSLRLSCAASGSTFASNAMGWYRQAPGTEMELVAAISRSADSTYYADSVKGRFTISRDNAKNTVYLQMNSLKPEDTAVYYCAARHSRYRNPKYYYWGQGTQVTVSS	high polyreactivity
QVHLVESGVGLVQAGGSRRLSCAASGVIFTGYAMGRYRHAPGKDRELVAAISSSGTSTYYADSVKGRFTISRDNAKYTVYLQINSLKPEDTAVYYCARVSKRTWSGYYFLGQGTQVTVSS	high polyreactivity
QVQLVESGGGLVQAGGTLRLSCAASGSTFFVYAMAWYRQEPGKERELVAAISSRGSTYYADSVKGRFTISRDNAKNTVFLQMISLKPEDSAVYFCAAEYTVSYLRMDYWGQGTQVTVSS	low polyreactivity
QVQLVESGGVLVQAGGSLRLSCAASGSTFEYNVMGWYRPAPGKERELVAAITTGASTNYADSVKGRFTISRDNAKNTVYLQMNCLKPEDTAVYYCAARYWRVRHGSVPAYSGYDYWGLGTQVTVSS	low polyreactivity
QVQLVESGGGLVQAGGSLRLSCAASGFTFHRNAMGWYRQAPGKERELVAAISTRGGSTAYADSVKGRFTISRDNAKNTVYLQMNSLKPEDTAVYYCNTRYVGQRSTWVDQVRRYDYWGQGTQVTVSS	high polyreactivity
QVHLVESGGGLVQAGGSLRLSCAASGRTFDRNAMGWYRQAPGKERELVAAISRNGGSTYYADSVKGRFTISRDNAKNTVYLQMNSLKPEDTAVYYCAAPRSVYDVARGDYWGQGTQVTVSS	high polyreactivity
QVQLVESGGGLVQAGGSLRLSCAASGIISGDYALGWYRQAPGKERELVARITSGDSTNYADSVKGRFTISRDNAKNTVYLQMNSLKPEDTAVYYCAADRVWAYWTYGYWGQGTQVTVSS	low polyreactivity
QVQLVESGGGLVQAGGSLRLSCAASGGIFGLYTMGWYRQAPGKERELVAGISKRGTRTRYADSVKGRFTISRDHAKNTVYLQMNSLKPEDTAVYYCNADYYVSKLDYWGQGTQVTVSS	high polyreactivity
QVQLVESGGGLVQAGGSLRLSCAASGLSFQSYAMGWYRQAPGKERELVAAISRRSGSTYYADSVKGRFTISRDNAKNTVYLQMNSLKPEDTAVYYCTTRRGERGYWGQGTQVTVSS	high polyreactivity
QVKLVESGGGLVQAVGSLRLSCAPSGFTLGSYAMGCYRQAPGKESELVAAITYSGSRTYYADSVKGRFTISRDNAKNTVYLQMNSLKPEDTAVYYCAAVTHYGFDYWGQGTQVTVSS	high polyreactivity
QVHLVESGGGLVQAGGSLRLSCAASGRIFDYYAMGWYRQAPGKERELVARITSGGTTNYADSVKGRFTISRDNENNTVYLQMNSLKPEYTEVYYCKAHDYSDPLQMDYWGQGTQVTVSS	low polyreactivity

Sequence	polyreactivity (PSR sort gate)
QVQLVESGGGLVQAGGSLRVTCAASGRIFQRYVMGWYRQAPGKERELVAAITWSGGSTYADSVKGRFTISRDNAKNTVYLQMNSLKTEDTAVYYFAARVPYNYWGMYYLYDYWGQGTQVTVSS	high polyreactivity
QVQLQESGGGPVLAGGSLRLSCAASGTIFVRLDMGWYRPAPGKEREFVATIGSGSSTYYADSVKGSFTISRDNVKNTVYLQMNSLQPEDTAVYYCAVSAAEQSRHYYWDQGTQVTVSS	low polyreactivity
QVQLEESGGGLVQAGGSLRLICAASGIIFLFYALGWYRQAPGKERELVASITWSGGSTYYADSVKGRFTISRDNAKNTVYLQMNSLKPEDTAVYYCAASVKIISYLVHSEFLGGELDYWGQGTHVTVSS	low polyreactivity
QVQLVESGGGLVQAGGSLRLSCAPSGRTFCPYAMGWYRKAPGKERELVAAISSSGSTTYYADSVKGRFTISRDNAKNTVYLQMNSLKPEDNAVYYCAAVYLRGDGEYDYWGQVTQVTVSS	low polyreactivity
QVQLVESAGGLVKEGGSLRLSCAASGRTFGVNAMGRYRQAPGKERELVAAITWSGDSTYYADSVKGRFTISRDNAKNTVYLQMNSLKPEDTAVYYCAKKSSLFKHVVRYAYWGQGNQVTVSS	low polyreactivity
QVQLQESGGGLVLAGGSLRLSCSASGNISFYGSMGWYRQAPGKESEFVATIDPGTNTNYADSVKDRFTISRDNAKNTVYLQMNSLKPEDTAVYYCAVEAGSDWPYRYWGQGTQVTVSS	low polyreactivity
QVQLVESGGGLVQAGGSLRLSCAASGSIFEGNAMGWYRQAPGKERELVAAISTTGGITYYADSVKGRFTISRDNAKNTVFLQMNSLKPEDTAVYYCAADPSQPRIDSSNYDYWGQGTQVTLSS	low polyreactivity
QVQLVESGGGLVQAGGSLRLSCAASGFTFYRYAMGWYRQAPGKEREFVASISWSGGSTYYADSVKGRFTISRDNAKNTVYLQMNSLKPEDTAVYYCAATSQAYWDLWSTYYTYYYWGQGTQVTVSS	high polyreactivity
QVQLVESGGGLVQAGGSLRLSCAPSGSIFPSNVMGWYRQAPGKERELVAAISNTGSTNYADSVKGRFTISRDNAKNTVYLQMNSLKPEDTAVYYCNGDASYGFWSLLDYDYWGQATQVTVSS	low polyreactivity
QVQLVESGGGLVQAGGSLRLSCAASGITFPYYAMGWYREAPGKERELVAAITQSGGSTYYADSVKGRFTISRDNAKNTVYLQMNSLKPEDTAVYYCAADSSRSVNYYRYDYWGQGTQVTLSS	low polyreactivity
QVHLVESGGGLVQAGGSLRLICAASGRIYTFYAMGWYRQAPGKERHLVAAIRGSSVSTYYADSVKGRFTISRDNAKITVYLQMNSLKPEDTAVYYCAADIYLWNSEYYYWGQGTQVTVSS	low polyreactivity
RVQLVESGGGLVKAGGSLRLSCAASGSIFYQYTMGWYRQAPGKERELVATISWSDVSTYYADSVKGRFTISRDNAKNTVYLQMNSLKPEDTAVYYCAALYWGWDRYYGYDYWGQGTQVTVSS	low polyreactivity
QVQLVESGGGLVQAGGSLRLSCAASGRIFRYNAMGWYRQAPGKERELVATISKSGGSTYYADSVKGRFTISRDNANYTVYLQMNSLKPEDTAVYYCAASYHPWLADYGYWGQGTQVSVSS	low polyreactivity
QVQLVESGGGLVQAGGSLRLSCAASISSINAMGWYRQAPAKEREVVAASRWSGSSTYYADSVKGRFTISRDNAKNTVYLQMNSLKPEDTAGYYCAADTTTGDRGFDYWGQGTQVTVSS	high polyreactivity
QDQLVESAGGLVQAGGSLSLSCAASGNIFVYYAMGWYRQAPGKERELVAAITSDVSTYYADSVKGRFTISRDNAKNTVYLQMNSLKPEDTAVYYCATTGYGSYVIYGGQGTQVTVSS	low polyreactivity
